Measured values reported in paper PMC11014265.
Where two headings read alike, the source gives them in different places.

T1: HrpA1-630 (Escherichia coli, UniProt P43329 1-630)
T1 sequence: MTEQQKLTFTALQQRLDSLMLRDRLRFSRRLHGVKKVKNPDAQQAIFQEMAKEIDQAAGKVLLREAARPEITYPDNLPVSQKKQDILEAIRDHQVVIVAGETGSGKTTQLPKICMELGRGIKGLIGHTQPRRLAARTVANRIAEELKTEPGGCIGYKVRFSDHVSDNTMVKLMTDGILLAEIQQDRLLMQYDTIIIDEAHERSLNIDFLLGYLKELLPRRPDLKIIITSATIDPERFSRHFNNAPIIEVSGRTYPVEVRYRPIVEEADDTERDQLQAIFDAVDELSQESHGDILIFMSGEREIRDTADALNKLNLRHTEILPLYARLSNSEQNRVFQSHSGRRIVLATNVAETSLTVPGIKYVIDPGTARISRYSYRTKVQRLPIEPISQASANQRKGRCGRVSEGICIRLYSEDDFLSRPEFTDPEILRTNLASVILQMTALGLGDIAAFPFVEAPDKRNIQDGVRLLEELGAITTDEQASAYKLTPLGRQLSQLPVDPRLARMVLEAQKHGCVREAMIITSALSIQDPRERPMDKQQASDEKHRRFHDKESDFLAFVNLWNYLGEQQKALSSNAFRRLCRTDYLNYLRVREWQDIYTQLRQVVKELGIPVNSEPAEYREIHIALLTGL


How the values were obtained:
HrpA1-630 [1] = target: T1, HrpA1-630; experiment: crystal structure
HrpA1-630 [2] = target: T1, HrpA1-630; experiment: crystal structure; remark: listed apart in the source

Binder	binding result (HrpA1-630 [1])	binding result (HrpA1-630 [2])
D-C11 i-motif (structured_DNA) DNA 1: CCCCCCCCCCC DNA 2: CCCCCCCCCCC	binds	
CCCCCCCCCCC (ssDNA) [D-C11, C2 complex]		binds
